Measurements as given in US20150266967A1 (Boehringer Ingelheim, published 2015).
Values belong to the binder of their own block, whether it stands above or below them.

Key:
[1] = biological target: T1, recombinant Fcγ-receptor 3a protein, high affinity V158 allotype (UniProt P08637 17-208); assay: surface plasmon resonance, KD from ka and kd
T1 construct: also called Fcγ-receptor 3a V158; FC gamma receptor 3a

[2] = biological target: T1, recombinant Fcγ-receptor 3a protein, …; assay: surface plasmon resonance, KD compared with reference antibody
[3] = biological target: T2, recombinant Fcγ-receptor 3a protein, low affinity F158 allotype (UniProt P08637 17-208); assay: surface plasmon resonance, KD from ka and kd; B2, F158 allotype
T2 construct: F158 allotype; also called Fcγ-receptor 3a F158; FC gamma receptor 3a
T2 sequence (P08637 17-208 limits assumed): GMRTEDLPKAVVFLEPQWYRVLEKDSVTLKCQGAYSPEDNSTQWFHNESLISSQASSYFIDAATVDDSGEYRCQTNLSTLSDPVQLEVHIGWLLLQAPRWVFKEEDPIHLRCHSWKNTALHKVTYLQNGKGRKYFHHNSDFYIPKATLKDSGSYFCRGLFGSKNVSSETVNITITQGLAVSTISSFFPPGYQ

[4] = biological target: T2, recombinant Fcγ-receptor 3a protein, …; assay: surface plasmon resonance, KD from ka and kd; A2, F158 allotype

T1 sequence (P08637 17-208 F176V): as the sequence (P08637 17-208 limits assumed) above, with F160V counted along it

Kd [1]: 9.3 nM | fold increased binding against the non Fc-engineered IgG1 reference antibody [2]: ~40 fold | Kd [3]: 21.1 nM
B1: CD37 antibody B2 (antibody, human IgG1, kappa)
heavy: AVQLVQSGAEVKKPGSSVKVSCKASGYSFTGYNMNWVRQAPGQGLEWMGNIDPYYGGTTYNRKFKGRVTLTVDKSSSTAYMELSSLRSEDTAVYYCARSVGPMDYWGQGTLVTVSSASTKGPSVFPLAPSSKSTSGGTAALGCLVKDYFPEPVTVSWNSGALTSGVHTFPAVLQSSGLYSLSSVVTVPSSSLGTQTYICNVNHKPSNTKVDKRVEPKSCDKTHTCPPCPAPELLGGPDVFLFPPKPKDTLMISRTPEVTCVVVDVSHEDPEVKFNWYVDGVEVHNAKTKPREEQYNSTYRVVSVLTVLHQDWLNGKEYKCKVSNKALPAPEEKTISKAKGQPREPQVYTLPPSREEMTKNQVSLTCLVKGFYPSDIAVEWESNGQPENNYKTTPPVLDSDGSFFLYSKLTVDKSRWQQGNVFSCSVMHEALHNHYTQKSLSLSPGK
light: DIQMTQSPSSLSASVGDRVTITCRTSENVYSYLAWYQQKPGKAPKLLVSFAKTLAEGVPSRFSGSGSGTDFTLTISSLQPEDFATYFCQHHSDNPWTFGQGTKVEIKRTVAAPSVFIFPPSDEQLKSGTASVVCLLNNFYPREAKVQWKVDNALQSGNSQESVTEQDSKDSTYSLSSTLTLSKADYEKHKVYACEVTHQGLSSPVTKSFNRGEC
notes: Fc-engineered CD37 antibody; copies: 2 + 2

Kd [1]: 8.8 nM | fold increased binding against the non Fc-engineered IgG1 reference antibody [2]: ~40 fold | Kd [4]: 17.5 nM
B2: CD37 antibody A2 (antibody, human IgG1, kappa)
heavy: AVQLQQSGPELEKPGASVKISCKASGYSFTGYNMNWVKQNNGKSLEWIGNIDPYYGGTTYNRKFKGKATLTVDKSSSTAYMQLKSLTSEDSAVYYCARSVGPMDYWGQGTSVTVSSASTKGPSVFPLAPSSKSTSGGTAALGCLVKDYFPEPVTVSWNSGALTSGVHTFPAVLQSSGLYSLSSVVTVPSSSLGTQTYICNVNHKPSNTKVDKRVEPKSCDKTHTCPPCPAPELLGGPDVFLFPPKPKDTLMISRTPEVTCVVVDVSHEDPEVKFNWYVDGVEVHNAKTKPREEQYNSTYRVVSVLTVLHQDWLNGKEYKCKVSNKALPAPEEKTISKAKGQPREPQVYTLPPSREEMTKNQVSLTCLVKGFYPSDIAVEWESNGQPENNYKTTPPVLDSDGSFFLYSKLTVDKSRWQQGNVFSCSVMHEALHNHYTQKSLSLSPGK
light: DIQMTQSPASLSASVGETVTITCRTSENVYSYLAWYQQKQGKSPQLLVSFAKTLAEGVPSRFSGSGSGTQFSLKISSLQPEDSGSYFCQHHSDNPWTFGGGTELEIKRTVAAPSVFIFPPSDEQLKSGTASVVCLLNNFYPREAKVQWKVDNALQSGNSQESVTEQDSKDSTYSLSSTLTLSKADYEKHKVYACEVTHQGLSSPVTKSFNRGEC
notes: as for B1
